Data as given in patent publication US20140170149A1 (Genmab, published 2014).
Read-outs that look alike come from different tables or passages of the source.

Assays:
[1] = target: T1, human CD3 protein complex (human, UniProt P07766 23-207; P09693 23-182; P04234 22-171; P20963 22-164); test: flow cytometry on Jurkat cells (CD3-expressing T cell line), MFI (PE) (Example 21)
T1 construct: whole, on cells; also called CD3 on Jurkat cells

[2] = target: T1, human CD3 protein complex; test: as above; remark: listed apart in the source
[3] = target: T1, human CD3 protein complex; test: as above; remark: listed apart in the source
[4] = target: T2, human epidermal growth factor receptor 2 (HER2) (human, UniProt P04626 23-1255); test: flow cytometry on AU565 cells (high HER2), PE-goat anti-human IgG, MFI; EC50 by non-linear regression (Example 12)
T2 construct: whole, on cells; One entry for endogenous HER2 on tumor cell lines and for the fully human construct hu-HER2 on CHO-S cells; also called ErbB-2; hu-HER2
Method: (§1) Binding of HER2 antibodies was detected using a Phycoerythrin (PE)-conjugated goat-anti-human IgG antibody (Jackson). […] EC₅₀ values were determined by means of non-linear regression (sigmoidal dose-response with variable slope) using GraphPad Prism V4.03 software (GraphPad Software, San Diego, Calif., USA).

[5] = target: T2, human epidermal growth factor receptor …; test: flow cytometry on A431 cells (low HER2), PE-goat anti-human IgG, MFI; EC50 by non-linear regression (Example 12)
Method: as §1

[6] = target: T2, human epidermal growth factor receptor …; test: cell-based or functional assay
[7] = target: T2, human epidermal growth factor receptor …; test: flow cytometry on CHO-S cells transiently transfected with hu-HER2, PE-goat anti-human IgG, MFI (Example 24)

T1 sequence (P07766 23-207, form in doubt, chain 1 of 4): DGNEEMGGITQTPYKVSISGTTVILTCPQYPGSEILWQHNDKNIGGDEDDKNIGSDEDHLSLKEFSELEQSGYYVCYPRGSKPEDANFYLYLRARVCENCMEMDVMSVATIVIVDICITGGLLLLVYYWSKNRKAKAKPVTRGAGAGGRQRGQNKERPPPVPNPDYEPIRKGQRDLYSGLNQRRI
T1 sequence (P09693 23-182, form in doubt, chain 2 of 4): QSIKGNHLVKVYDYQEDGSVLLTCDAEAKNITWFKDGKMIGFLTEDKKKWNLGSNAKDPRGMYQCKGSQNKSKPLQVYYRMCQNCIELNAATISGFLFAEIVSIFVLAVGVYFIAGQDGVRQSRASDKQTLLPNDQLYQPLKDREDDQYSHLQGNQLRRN
T1 sequence (P04234 22-171, form in doubt, chain 3 of 4): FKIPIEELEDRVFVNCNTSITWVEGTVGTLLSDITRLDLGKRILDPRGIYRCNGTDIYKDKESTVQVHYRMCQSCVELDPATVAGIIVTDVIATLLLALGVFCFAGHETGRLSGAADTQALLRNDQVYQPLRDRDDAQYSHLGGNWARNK
T1 sequence (P20963 22-164, form in doubt, chain 4 of 4): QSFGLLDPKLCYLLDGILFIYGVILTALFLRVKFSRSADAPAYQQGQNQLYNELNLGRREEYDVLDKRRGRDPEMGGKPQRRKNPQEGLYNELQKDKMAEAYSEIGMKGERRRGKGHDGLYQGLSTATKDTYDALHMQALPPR

B1: IgG1-huOKT3-F405L (antibody, V domains shown)
VH: QVQLVQSGGGVVQPGRSLRLSCKASGYTFTRYTMHWVRQAPGKGLEWIGYINPSRGYTNYNQKVKDRFTISRDNSKNTAFLQMDSLRPEDTGVYFCARYYDDHYSLDYWGQGTPVTVSS
VL: DIQMTQSPSSLSASVGDRVTITCSASSSVSYMNWYQQTPGKAPKRWIYDTSKLASGVPSRFSGSGSGTDYTFTISSLQPEDIATYYCQQWSSNPFTFGQGTKLQIT
notes: Expressed as IgG1,κ with F405L; also called huOKT3-C114S-gLC; IgG1-OKT3
In the case of B1, the “EC50 (read off the curve)” value [1] is reported as roughly 0.02 mg/L.

B2: IgG1-HUM291-F405L (antibody, V domains shown)
VH: QVQLVQSGAEVKKPGASVKVSCKASGYTFISYTMHWVRQAPGQGLEWMGYINPRSGYTHYNQKLKDKATLTADKSASTAYMELSSLRSEDTAVYYCARSAYYDYDGFAYWGQGTLVTVSS
VL: DIQMTQSPSSLSASVGDRVTITCSASSSVSYMNWYQQKPGKAPKRLIYDTSKLASGVPSRFSGSGSGTDFTLTISSLQPEDFATYYCQQWSSNPPTFGGGTKVEIK
notes: Expressed as IgG1,κ with F405L; also called visilizumab
For B2, the “EC50 (read off the curve)” value [2] was roughly 0.02 mg/L.

B3: huOKT3-F405L x b12-K409R (bispecific antibody)
heavy chain, CD3 arm (huOKT3-C114S-gLC, IgG1-F405L): not shown
light chain, CD3 arm: DIQMTQSPSSLSASVGDRVTITCSASSSVSYMNWYQQTPGKAPKRWIYDTSKLASGVPSRFSGSGSGTDYTFTISSLQPEDIATYYCQQWSSNPFTFGQGTKLQIT
heavy chain, b12 arm (IgG1-K409R): not shown
light chain, b12 arm: EIVLTQSPGTLSLSPGERATFSCRSSHSIRSRRVAWYQHKPGQAPRLVIHGVSNRASGISDRFSGSGSGTDFTLTITRVEPEDFALYYCQVYGASSYTFGQGTKLERK
notes: also called huOKT3 x b12; CD3xb12 control
With B3 the “EC50 (read off the curve)” value [1] was roughly 3 mg/L.

B4: IgG1-hu-CLB-T3/4-F405L × IgG1-HER2-169-K409R (bispecific antibody)
heavy 1: not shown
VL 1: EIVLTQSPATLSLSPGERATLSCRASQSVSSYLAWYQQKPGQAPRLLIYDASNRATGIPARFSGSGSGTDFTLTISSLEPEDFAVYYCQQRSNWPRTFGQGTKVEIK
heavy 2: not shown
VL 2: EIVLTQSPATLSLSPGERATLSCSASSSVTYVHWYQQKPGQAPRLLIYDTSKLASGIPARFSGSGSGTDFTLTISSLEPEDFAVYYCFQGSGYPLTFGSGTKLEMR
notes: Made by 2-MEA-induced Fab-arm exchange; IgG1,κ
For B4, the “EC50 (read off the curve)” value [3] was roughly 0.2 mg/L.

B5: huCLB-T3/4-F405L x b12-K409R (bispecific antibody)
heavy chain, CD3 arm (huCLB-T3/4, IgG1-F405L): not shown
light chain, CD3 arm: EIVLTQSPATLSLSPGERATLSCSASSSVTYVHWYQQKPGQAPRLLIYDTSKLASGIPARFSGSGSGTDFTLTISSLEPEDFAVYYCFQGSGYPLTFGSGTKLEMR
heavy chain, b12 arm (IgG1-K409R): not shown
light chain, b12 arm: EIVLTQSPGTLSLSPGERATFSCRSSHSIRSRRVAWYQHKPGQAPRLVIHGVSNRASGISDRFSGSGSGTDFTLTITRVEPEDFALYYCQVYGASSYTFGQGTKLERK
notes: also called huCLB-T3/4 x b12; CD3xb12 control
With B5 the “EC50 (read off the curve)” value [3] was roughly 0.2 mg/L.

B6: HER2 HuMab 153 (antibody, V domains shown)
VH: QVQLVESGGGVVQPGRSLRLSCAASGFTFSDYVIHWVRQAPGKGLEWVTVISYDGSNKYYADSVKGRFTISRDNSKNTLYLQMNSLSAEDTAMYYCARGGITGTTGVFDYWGQGTLVTVSS
VL: DIQMTQSPSSLSASVGDRVTITCRASQGISSWLAWYQQKPEKAPKSLIYDASSLQSGVPSRFSGSGYGTDFSLTISSLQPEDFAIYYCQQYKSYPITFGQGTRLEIK
notes: also called PC1014-153; TH1014-153
B6 was tested, and the EC50 [4] was 0.626 mg/L, the EC50 [5] was 0.244 mg/L and the “EC50, fab-CypHer5E internalization assay, AU565 cells” value [6] was roughly 0.0149 mg/L. For the same binder, the “Maximal MFI, fab-CypHer5E internalization assay, AU565 cells” value [6] was 87500 MFI and the “EC50 (read off the curve)” value [7] was roughly 0.04 mg/L.

B7: IgG1-huOKT3-F405L × IgG1-HER2-153-K409R (bispecific antibody)
heavy 1: not shown
VL 1: DIQMTQSPSSLSASVGDRVTITCRASQGISSWLAWYQQKPEKAPKSLIYDASSLQSGVPSRFSGSGYGTDFSLTISSLQPEDFAIYYCQQYKSYPITFGQGTRLEIK
heavy 2: not shown
VL 2: DIQMTQSPSSLSASVGDRVTITCSASSSVSYMNWYQQTPGKAPKRWIYDTSKLASGVPSRFSGSGSGTDYTFTISSLQPEDIATYYCQQWSSNPFTFGQGTKLQIT
notes: Made by 2-MEA-induced Fab-arm exchange; IgG1,κ; also called huOKT3×153
For B7, the “EC50 (read off the curve)” value [1] was roughly 2 mg/L.

B8: IgG1-HUM291-F405L × IgG1-HER2-153-K409R (bispecific antibody)
heavy 1: not shown
VL 1: DIQMTQSPSSLSASVGDRVTITCRASQGISSWLAWYQQKPEKAPKSLIYDASSLQSGVPSRFSGSGYGTDFSLTISSLQPEDFAIYYCQQYKSYPITFGQGTRLEIK
heavy 2: not shown
VL 2: DIQMTQSPSSLSASVGDRVTITCSASSSVSYMNWYQQKPGKAPKRLIYDTSKLASGVPSRFSGSGSGTDFTLTISSLQPEDFATYYCQQWSSNPPTFGGGTKVEIK
notes: Made by 2-MEA-induced Fab-arm exchange; IgG1,κ; also called HUM291×153
With B8 the “EC50 (read off the curve)” value [2] was roughly 2 mg/L.
